Experimental data as given in article PMC4167904.

Molecular target: T1, p52 (NF-kB2) (human, UniProt Q00653 1-408)
T1 sequence: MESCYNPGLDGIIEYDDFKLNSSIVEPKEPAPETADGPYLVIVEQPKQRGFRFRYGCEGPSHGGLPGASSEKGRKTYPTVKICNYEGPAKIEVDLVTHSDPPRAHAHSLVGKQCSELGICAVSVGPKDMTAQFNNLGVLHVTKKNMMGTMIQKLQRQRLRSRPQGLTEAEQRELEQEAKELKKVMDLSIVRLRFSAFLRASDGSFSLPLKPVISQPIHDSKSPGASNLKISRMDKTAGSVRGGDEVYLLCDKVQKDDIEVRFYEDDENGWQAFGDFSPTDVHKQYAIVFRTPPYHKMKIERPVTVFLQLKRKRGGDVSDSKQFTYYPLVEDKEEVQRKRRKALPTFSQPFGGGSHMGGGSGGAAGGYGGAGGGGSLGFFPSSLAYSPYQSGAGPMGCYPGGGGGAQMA
Test: EMSA

B1: P-selectin kB (A/T) (dsDNA)
DNA 1: TCGACGGAAGGGGGTAACCCCTTGGG
DNA 2: GATCCCCAAGGGGTTACCCCCTTCCG
- binding result: binds
